Experimental data reported in patent US20240343809A1 (EXCELMAB, published 2024).
Numbering of substitutions follows the chain as printed. Each block holds one binder with its values, some of them ahead of it.

How the values were obtained:
[1] = target: T1, human B7-H3 antigen, recombinant extracellular domain (ECD) (29-461) (human, UniProt Q5ZPR3 29-461); experiment: ELISA, coated human B7-H3 antigen
T1 construct: range 29-461; Expressed in 293F cells as B7-H3-TEV-cFc-His fusion, cut with TEV protease and cleaned over a nickel column to give the human B7-H3 antigen; also called recombinant human B7-H3 antigen; hB7-H3
T1 sequence (looked up): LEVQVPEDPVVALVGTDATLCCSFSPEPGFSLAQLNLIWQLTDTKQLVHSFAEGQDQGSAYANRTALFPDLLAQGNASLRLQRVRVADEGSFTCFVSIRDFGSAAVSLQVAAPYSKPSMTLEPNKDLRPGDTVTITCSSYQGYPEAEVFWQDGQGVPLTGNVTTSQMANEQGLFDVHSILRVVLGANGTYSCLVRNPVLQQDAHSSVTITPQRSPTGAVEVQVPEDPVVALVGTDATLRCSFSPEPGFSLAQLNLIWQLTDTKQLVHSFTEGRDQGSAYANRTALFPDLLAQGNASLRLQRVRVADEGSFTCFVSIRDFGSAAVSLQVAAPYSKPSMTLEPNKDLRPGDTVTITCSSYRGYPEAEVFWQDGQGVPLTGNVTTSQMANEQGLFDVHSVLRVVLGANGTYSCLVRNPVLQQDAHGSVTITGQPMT
Procedure: (§1) The binding activity of the 5D9 to B7-H3 antigen was analyzed by ELISA. Human B7-H3 antigens were coated on the 96-well plate and placed at 4° C. overnight. The antibody 5D9 and controls were diluted to 10 μg/mL, followed by 4-fold dilution gradients to generate a total of 8 different concentrations. The diluted samples and the wells coated antigen were incubated for 1h. After washing, HRP (horseradish peroxidase)-labeled goat anti-human IgG (H+L) secondary antibody was added to the plate and incubated for 1h. TMB (3,3′,5,5′-tetramethylbenzidine) solution was then added to each well after washing for chromogenesis. The absorbance was measured at OD₄₅₀ₙₘ with a microplate reader. Taking the logarithmic value of the sample concentration as the X-axis, and the absorbance OD₄₅₀ₙₘ value as the Y-axis, a dose-response curve was drawn to calculate the EC₅₀. The EC₅₀ represents the binding activity of the antibody to B7-H3 antigen. A negative control IgG group and a positive antibody Enoblituzumab control group were meanwhile set in the experiment.

[2] = target: T1, human B7-H3 antigen, recombinant …; experiment: ELISA, coated human B7-H3 antigen; remark: listed apart in the source
Procedure: as §1
ELISA was used to analyze the binding activity of affinity-matured variants to human B7-H3 antigen. By taking the logarithmic value of the sample concentration as the X-axis, and the absorbance OD₄₅₀ₙₘ value as the Y-axis, a dose-response curve was drawn to calculate the EC₅₀. The EC₅₀ represents the binding activity of the affinity-matured variants to B7-H3 antigen. A positive control Enoblituzumab and a negative control hIgG were set in the experiment.

B1: B7-H3 antibody 5D9 (antibody, V domains shown)
VH: QVQLVQSGAEVKKPGSSVKVSCKASGGTFSNYAINWVRQAPGQGLEWMGGIIPLFGTANYAQKFQGRVTITADESTSTAYMELSSLRSDDTAVYYCARDQVVATSGVNFGMDVWGQGTTVTVSS
VL: DIQMTQEPSLTTSPGGTVTLTCRSSTGAVTTSNYANWVQEKPGQAPRGLIGGTNKRAPGTPARFSGSLIGGKAALTITGVQPEDEAIYFCALWYSNLWVFGGGTKLEIK
notes: Expressed as full antibody (heavy and light chain) in 293F cells, protein A purified, detected with anti-human IgG
binding result [1]: binds

B2: affinity-matured B7-H3 antibody 46D4 (antibody, V domains shown)
VH: B1 VH with Q100V, A103P, T104R
VL: B1 VL
notes: Full antibody expressed in 293F cells, protein A purified; VH assembled from the framework and CDR entries
EC50 [2]: 0.0283 µg/mL

B3: affinity-matured B7-H3 antibody 42A1 (antibody, V domains shown)
VH: B1 VH with F29G, S30G, N31I, A33L
VL: B1 VL
notes: as for B2
EC50 [2]: 0.0354 µg/mL

B4: affinity-matured B7-H3 antibody 46H9 (antibody, V domains shown)
VH: B1 VH with Q100R, V101E, V102A, A103R, T104E
VL: B1 VL
notes: as for B2
EC50 [2]: 0.147 µg/mL

B5: affinity-matured B7-H3 antibody 43D4 (antibody, V domains shown)
VH: B1 VH with F29S, S30G, N31V, Y32A, A33L
VL: B1 VL
notes: as for B2
EC50 [2]: 0.0303 µg/mL

B7: affinity-matured B7-H3 antibody 45B11 (antibody, V domains shown)
VH: B1 VH with L54M, F55W, G56Q, T57S, A58V
VL: B1 VL
notes: as for B2
EC50 [2]: 0.0265 µg/mL

B8: affinity-matured B7-H3 antibody 49C3 (antibody, V domains shown)
VH: B1 VH with L54N, G56E, T57S, A58V
VL: B1 VL
notes: as for B2
EC50 [2]: 0.0245 µg/mL

B11: affinity-matured B7-H3 antibody 48A6 (antibody, V domains shown)
VH: B1 VH with F29R, S30P, N31P, Y32A, A33L
VL: B1 VL
notes: as for B2
EC50 [2]: 0.0272 µg/mL

B12: affinity-matured B7-H3 antibody 43G11 (antibody, V domains shown)
VH: B1 VH with F29L, S30R, N31P, Y32V, A33L
VL: B1 VL
notes: as for B2
EC50 [2]: 0.0411 µg/mL

B15: affinity-matured B7-H3 antibody 48E9 (antibody, V domains shown)
VH: B1 VH with F29G, S30G, N31A, A33L
VL: B1 VL
notes: as for B2
EC50 [2]: 0.0438 µg/mL

B16: affinity-matured B7-H3 antibody 42F7 (antibody, V domains shown)
VH: B1 VH with F29R, S30P, N31A, Y32A, A33L
VL: B1 VL
notes: as for B2
EC50 [2]: 0.0278 µg/mL

B17: affinity-matured B7-H3 antibody 48G2 (antibody, V domains shown)
VH: B1 VH with F29S, S30R, N31P, Y32V, A33L
VL: B1 VL
notes: as for B2
EC50 [2]: 0.0303 µg/mL

B18: affinity-matured B7-H3 antibody 46H7 (antibody, V domains shown)
VH: B1 VH with Q100R, V101F, V102T, A103P, T104R
VL: B1 VL
notes: as for B2
EC50 [2]: 0.039 µg/mL

B20: affinity-matured B7-H3 antibody 48B12 (antibody, V domains shown)
VH: B1 VH with F29T, S30G, N31R, A33L
VL: B1 VL
notes: as for B2
EC50 [2]: 0.0259 µg/mL

B21: affinity-matured B7-H3 antibody 44C5 (antibody, V domains shown)
VH: B1 VH with L54R, T57G, A58V
VL: B1 VL
notes: as for B2
EC50 [2]: 0.0639 µg/mL

B23: affinity-matured B7-H3 antibody 43G5 (antibody, V domains shown)
VH: B1 VH with F29V, S30R, N31P, Y32A, A33L
VL: B1 VL
notes: as for B2
EC50 [2]: 0.0279 µg/mL

B27: affinity-matured B7-H3 antibody 45F4 (antibody, V domains shown)
VH: B1 VH with G56R, T57S, A58S
VL: B1 VL
notes: as for B2
EC50 [2]: 0.0219 µg/mL

B28: affinity-matured B7-H3 antibody 47C8 (antibody, V domains shown)
VH: B1 VH with Q100I, V101E, A103M, T104A
VL: B1 VL
notes: as for B2
EC50 [2]: 0.0426 µg/mL

B30: affinity-matured B7-H3 antibody 44F2 (antibody, V domains shown)
VH: B1 VH with L54G, G56Y, T57S, A58L
VL: B1 VL
notes: as for B2
EC50 [2]: 0.0464 µg/mL

B31: affinity-matured B7-H3 antibody 48D10 (antibody, V domains shown)
VH: B1 VH with F29R, S30P, N31A, Y32A, A33L
VL: B1 VL
notes: as for B2
EC50 [2]: 0.0251 µg/mL

B33: affinity-matured B7-H3 antibody 49B2 (antibody, V domains shown)
VH: B1 VH with L54N, G56H, T57S, A58S
VL: B1 VL
notes: as for B2
EC50 [2]: 0.0286 µg/mL

B34: affinity-matured B7-H3 antibody 47H4 (antibody, V domains shown)
VH: B1 VH with Q100F, V101D, V102A, A103P, T104G
VL: B1 VL
notes: as for B2
EC50 [2]: 0.0244 µg/mL

B35: Enoblituzumab (antibody, V domains shown)
VH: EVQLVESGGGLVQPGGSLRLSCAASGFTFSSFGMHWVRQAPGKGLEWVAYISSDSSAIYYADTVKGRFTISRDNAKNSLYLQMNSLRDEDTAVYYCGRGRENIYYGSRLDYWGQGTTVTVSS
VL: DIQLTQSPSFLSASVGDRVTITCKASQNVDTNVAWYQQKPGKAPKALIYSASYRYSGVPSRFSGSGSGTDFTLTISSLQPEDFATYYCQQYNNYPFTFGQGTKLEIKR
EC50 [2]: 0.0255 µg/mL

Next, values leading:

EC50 [2]: 0.0261 µg/mL
B6: affinity-matured B7-H3 antibody 49E1 (antibody, V domains shown)
VH: B1 VH with L54V, G56R, T57S, A58V
VL: B1 VL
notes: as for B2

EC50 [2]: 0.0418 µg/mL
B9: affinity-matured B7-H3 antibody 50E3 (antibody, V domains shown)
VH: B1 VH with Q100V, V101N, V102N, A103P, T104G
VL: B1 VL
notes: as for B2

EC50 [2]: 0.0219 µg/mL
B10: affinity-matured B7-H3 antibody 49D12 (antibody, V domains shown)
VH: B1 VH with L54R, G56A, T57S, A58R
VL: B1 VL
notes: as for B2

EC50 [2]: 0.0247 µg/mL
B13: affinity-matured B7-H3 antibody 50A6 (antibody, V domains shown)
VH: B1 VH with Q100A, A103P, T104N
VL: B1 VL
notes: as for B2

EC50 [2]: 0.0274 µg/mL
B14: affinity-matured B7-H3 antibody 50A4 (antibody, V domains shown)
VH: B1 VH with Q100E, A103V, T104G
VL: B1 VL
notes: as for B2

EC50 [2]: 0.0309 µg/mL
B19: affinity-matured B7-H3 antibody 49F6 (antibody, V domains shown)
VH: B1 VH with L54G, G56D, T57A, A58V
VL: B1 VL
notes: as for B2

EC50 [2]: 0.0278 µg/mL
B22: affinity-matured B7-H3 antibody 50B10 (antibody, V domains shown)
VH: B1 VH with Q100V, V101E, A103F, T104N
VL: B1 VL
notes: as for B2

EC50 [2]: 0.0339 µg/mL
B24: affinity-matured B7-H3 antibody 50A11 (antibody, V domains shown)
VH: B1 VH with A103P, T104R
VL: B1 VL
notes: as for B2

EC50 [2]: 0.0321 µg/mL
B25: affinity-matured B7-H3 antibody 50A1 (antibody, V domains shown)
VH: B1 VH with A103P, T104L
VL: B1 VL
notes: as for B2

EC50 [2]: 0.033 µg/mL
B26: affinity-matured B7-H3 antibody 49C7 (antibody, V domains shown)
VH: B1 VH with L54N, G56Y, T57S, A58V
VL: B1 VL
notes: as for B2

EC50 [2]: 0.0336 µg/mL
B29: affinity-matured B7-H3 antibody 49H5 (antibody, V domains shown)
VH: B1 VH with L54D, G56N, T57S
VL: B1 VL
notes: as for B2

EC50 [2]: 0.0285 µg/mL
B32: affinity-matured B7-H3 antibody 49C8 (antibody, V domains shown)
VH: B1 VH with L54K, G56R, T57S, A58Q
VL: B1 VL
notes: as for B2
